Changes are numbered by the printed parent chain. Names and notes keep the numbering of the source. One block for each binder: values may come before it.
How the values were obtained:
insulin receptor A [1] = target: T1, insulin receptor A (UniProt P06213-2 28-1370, limits assumed); experiment: insulin receptor binding assay as in Vienberg et al. 2011; relative to human insulin on insulin receptor A (100%)
insulin receptor A [2] = target: T1, insulin receptor A; experiment: summary of Table 3; lower end tied by Table 3 to the compound of Example 5.31 (0.47)
[3] = target: insulin receptor of isolated rat adipocytes (rat, UniProt P15127 27-1383); experiment: cell-based or functional assay
Chain of insulin receptor of isolated rat adipocytes (P15127 27-1383): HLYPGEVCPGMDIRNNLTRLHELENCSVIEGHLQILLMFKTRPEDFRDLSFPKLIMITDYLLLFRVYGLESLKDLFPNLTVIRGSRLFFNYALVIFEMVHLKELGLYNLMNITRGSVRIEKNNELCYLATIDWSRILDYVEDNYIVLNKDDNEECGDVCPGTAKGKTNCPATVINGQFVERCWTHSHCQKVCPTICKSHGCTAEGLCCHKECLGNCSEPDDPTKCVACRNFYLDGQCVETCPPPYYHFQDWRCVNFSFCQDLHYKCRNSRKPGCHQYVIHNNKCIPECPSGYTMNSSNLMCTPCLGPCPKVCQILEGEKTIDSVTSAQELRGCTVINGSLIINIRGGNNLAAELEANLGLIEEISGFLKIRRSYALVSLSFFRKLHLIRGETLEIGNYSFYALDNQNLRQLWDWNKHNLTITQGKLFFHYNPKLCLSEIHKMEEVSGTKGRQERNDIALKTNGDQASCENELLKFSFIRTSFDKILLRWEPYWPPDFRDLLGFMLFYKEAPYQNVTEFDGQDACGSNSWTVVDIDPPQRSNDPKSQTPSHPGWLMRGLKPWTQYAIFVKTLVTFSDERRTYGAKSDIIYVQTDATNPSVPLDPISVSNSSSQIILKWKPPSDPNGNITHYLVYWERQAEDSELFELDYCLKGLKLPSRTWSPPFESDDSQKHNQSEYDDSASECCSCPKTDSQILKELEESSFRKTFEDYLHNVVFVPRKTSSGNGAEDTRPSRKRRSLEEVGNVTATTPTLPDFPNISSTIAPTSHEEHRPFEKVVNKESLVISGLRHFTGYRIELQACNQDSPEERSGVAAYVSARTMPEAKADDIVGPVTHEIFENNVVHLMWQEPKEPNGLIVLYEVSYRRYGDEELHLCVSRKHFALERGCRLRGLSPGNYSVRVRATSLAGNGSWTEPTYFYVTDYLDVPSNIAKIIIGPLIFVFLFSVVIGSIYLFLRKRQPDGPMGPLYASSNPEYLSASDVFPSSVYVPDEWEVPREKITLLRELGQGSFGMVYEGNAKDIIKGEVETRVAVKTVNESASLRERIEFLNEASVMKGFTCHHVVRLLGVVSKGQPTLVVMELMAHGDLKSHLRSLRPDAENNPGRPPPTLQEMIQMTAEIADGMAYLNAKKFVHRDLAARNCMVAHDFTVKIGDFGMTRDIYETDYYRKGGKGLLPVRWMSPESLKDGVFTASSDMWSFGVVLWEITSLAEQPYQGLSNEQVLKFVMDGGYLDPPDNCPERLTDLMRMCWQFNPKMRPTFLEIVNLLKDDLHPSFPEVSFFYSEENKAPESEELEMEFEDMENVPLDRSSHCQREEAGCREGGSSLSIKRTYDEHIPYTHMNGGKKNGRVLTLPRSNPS

insulin receptor A [4] = target: T1, insulin receptor A; experiment: summary of Table 3; upper end tied by Table 3 to the compound of Example 5.8 (10.58)

T1 sequence (P06213 other isoform, or with tags, fused parts or gaps limits assumed): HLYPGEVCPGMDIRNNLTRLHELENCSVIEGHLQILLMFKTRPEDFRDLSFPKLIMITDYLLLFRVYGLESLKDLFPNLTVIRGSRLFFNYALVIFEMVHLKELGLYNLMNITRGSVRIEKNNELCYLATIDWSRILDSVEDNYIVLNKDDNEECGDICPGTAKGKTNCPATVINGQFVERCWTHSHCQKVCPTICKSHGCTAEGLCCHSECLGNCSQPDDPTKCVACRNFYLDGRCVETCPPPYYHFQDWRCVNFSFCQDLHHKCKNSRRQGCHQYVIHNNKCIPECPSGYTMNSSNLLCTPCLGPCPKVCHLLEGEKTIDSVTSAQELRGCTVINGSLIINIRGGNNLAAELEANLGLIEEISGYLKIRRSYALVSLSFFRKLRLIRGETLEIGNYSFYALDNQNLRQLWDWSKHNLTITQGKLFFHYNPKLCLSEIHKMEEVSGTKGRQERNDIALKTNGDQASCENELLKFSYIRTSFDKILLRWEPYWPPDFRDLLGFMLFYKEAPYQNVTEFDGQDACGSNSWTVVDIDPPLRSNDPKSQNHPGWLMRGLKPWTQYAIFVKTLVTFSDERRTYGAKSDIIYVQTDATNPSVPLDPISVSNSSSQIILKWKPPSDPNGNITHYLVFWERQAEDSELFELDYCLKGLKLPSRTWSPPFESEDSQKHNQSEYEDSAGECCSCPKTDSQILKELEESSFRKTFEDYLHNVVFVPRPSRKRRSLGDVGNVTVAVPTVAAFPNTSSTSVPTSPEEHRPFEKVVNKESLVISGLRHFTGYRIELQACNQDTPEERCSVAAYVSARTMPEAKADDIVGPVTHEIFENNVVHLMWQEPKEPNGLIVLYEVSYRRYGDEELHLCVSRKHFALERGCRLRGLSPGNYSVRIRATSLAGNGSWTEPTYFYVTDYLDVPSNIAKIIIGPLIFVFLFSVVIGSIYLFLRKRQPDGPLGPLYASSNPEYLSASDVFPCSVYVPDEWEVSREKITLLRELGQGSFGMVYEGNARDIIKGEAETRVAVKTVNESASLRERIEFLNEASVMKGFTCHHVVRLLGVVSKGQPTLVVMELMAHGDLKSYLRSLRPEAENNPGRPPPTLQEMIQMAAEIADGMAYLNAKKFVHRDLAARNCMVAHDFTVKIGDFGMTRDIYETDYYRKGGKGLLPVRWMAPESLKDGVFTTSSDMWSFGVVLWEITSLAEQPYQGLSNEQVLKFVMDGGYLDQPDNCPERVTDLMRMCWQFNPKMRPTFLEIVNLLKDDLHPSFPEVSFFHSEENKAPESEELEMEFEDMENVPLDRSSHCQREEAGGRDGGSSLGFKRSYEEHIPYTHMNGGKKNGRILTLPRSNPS

B3: A14E, A21G, A22(GQAPGQAPGQEP)6-GQAP, A98K^, A99P, B29R, desB30 human insulin/(227A, 234A, 235K, 297E, 315Q, 384Q, des447 hIgG4-Fc(228-447)) … (other)
chain 1: GIVEQCCTSICSLEQLENYCGGQAPGQAPGQEPGQAPGQAPGQEPGQAPGQAPGQEPGQAPGQAPGQEPGQAPGQAPGQEPGQAPGQAPGQEPGQAPKP
chain 2: FVNQHLCGSHLVEALYLVCGERGFFYTPR
chain 3: ASCPAPEAKGGPSVFLFPPKPKDTLMISRTPEVTCVVVDVSQEDPEVQFNWYVDGVEVHNAKTKPREEQFESTYRVVSVLTVLHQDWLQGKEYKCKVSNKGLPSSIEKTISKAKGQPREPQVYTLPPSQEEMTKNQVSLTCLVKGFYPSDIAVEWESQGQPENNYKTTPPVLDSDGSFFLYSRLTVDKSRWQEGNVFSCSVMHEALHNHYTQKSLSLSLG
modifications: Cys229 (EU numbering) sulphur bound to an acetyl arm of the linker; A98K N(eps) acylated by the trivalent linker 4-[bis[2-[(2-acetyl)amino]ethyl]amino]-4-oxo-butanoyl
Insulin receptor affinity [IC50 relative to HI (%)] (insulin receptor A [1]): 4% | Lipogenesis in rat adipocytes [Potency (%)] Mean Value [3]: 3.02 % of human insulin

B4: (A14A, A21G, A22(GQAP)18, A94G, A95Q, A96A, A97K^, A98P, B29R, desB30 human insulin)/(227A, 234A, 235K, 297E, 315Q, 384Q, des447 hIgG4-Fc(228-447)) … (other)
chain 1: GIVEQCCTSICSLAQLENYCGGQAPGQAPGQAPGQAPGQAPGQAPGQAPGQAPGQAPGQAPGQAPGQAPGQAPGQAPGQAPGQAPGQAPGQAPGQAKP
chain 2: FVNQHLCGSHLVEALYLVCGERGFFYTPR
chain 3: B3 chain 3
modifications: Cys229 (EU numbering) sulphur bound to an acetyl arm of the linker; A97K N(eps) acylated by the trivalent linker 4-[bis[2-[(2-acetyl)amino]ethyl]amino]-4-oxo-butanoyl
notes: also called Ex 5.25
Insulin receptor affinity [IC50 relative to HI (%)] (insulin receptor A [1]): 4.49% | Lipogenesis in rat adipocytes [Potency (%)] Mean Value [3]: 2.08 % of human insulin

B7: A14E, A21G, A22(GQEP)6, A46K^, A47P, B25H, B29R, desB30 human insulin/(227A, 234A, 235K hIgG4-Fc(228-447)) … (other)
chain 1: GIVEQCCTSICSLEQLENYCGGQEPGQEPGQEPGQEPGQEPGQEPKP
chain 2: FVNQHLCGSHLVEALYLVCGERGFHYTPR
chain 3: ASCPAPEAKGGPSVFLFPPKPKDTLMISRTPEVTCVVVDVSQEDPEVQFNWYVDGVEVHNAKTKPREEQFNSTYRVVSVLTVLHQDWLNGKEYKCKVSNKGLPSSIEKTISKAKGQPREPQVYTLPPSQEEMTKNQVSLTCLVKGFYPSDIAVEWESNGQPENNYKTTPPVLDSDGSFFLYSRLTVDKSRWQEGNVFSCSVMHEALHNHYTQKSLSLSLGK
modifications: Cys229 (EU numbering) sulphur bound to an acetyl arm of the linker; A46K N(eps) acylated by the trivalent linker 4-[bis[2-[(2-acetyl)amino]ethyl]amino]-4-oxo-butanoyl
notes: also called Ex 5.7
Insulin receptor affinity [IC50 relative to HI (%)] (insulin receptor A [1]): 2.43% | Lipogenesis in rat adipocytes [Potency (%)] Mean Value [3]: 1.88 % of human insulin

B8: A14E, A21G, A22(GQAPGQEP)6, A70K^, A71P, B25H, B29R, desB30 human insulin/(227A, 234A, 235K, 297E, 315Q, 384Q, des447 hIgG4-Fc(228-447)) … (other)
chain 1: GIVEQCCTSICSLEQLENYCGGQAPGQEPGQAPGQEPGQAPGQEPGQAPGQEPGQAPGQEPGQAPGQEPKP
chain 2: FVNQHLCGSHLVEALYLVCGERGFHYTPR
chain 3: B3 chain 3
modifications: Cys229 (EU numbering) sulphur bound to an acetyl arm of the linker; A70K N(eps) acylated by the trivalent linker 4-[bis[2-[(2-acetyl)amino]ethyl]amino]-4-oxo-butanoyl
notes: also called Ex 5.14
Insulin receptor affinity [IC50 relative to HI (%)] (insulin receptor A [1]): 5.37% | Lipogenesis in rat adipocytes [Potency (%)] Mean Value [3]: 4.86 % of human insulin

B10: A14E, A21G, A22(GQEP)12, A70K^, A71P, B25H, B29R, desB30 human insulin/(227A, 234A, 235K, 297E, 315Q, 384Q, des447 hIgG4-Fc(228-447)) … (other)
chain 1: B8 chain 1 with A24E, A32E, A40E, A48E, A56E, A64E
chain 2: FVNQHLCGSHLVEALYLVCGERGFHYTPR
chain 3: B3 chain 3
modifications: Cys229 (EU numbering) sulphur bound to an acetyl arm of the linker; A70K N(eps) acylated by the trivalent linker 4-[bis[2-[(2-acetyl)amino]ethyl]amino]-4-oxo-butanoyl
notes: also called Ex 5.17
Insulin receptor affinity [IC50 relative to HI (%)] (insulin receptor A [1]): 3.98% | Lipogenesis in rat adipocytes [Potency (%)] Mean Value [3]: 4.39 % of human insulin

Second part, the binder after the results:

Insulin receptor affinity [IC50 relative to HI (%)] (insulin receptor A [1]): 0.47% | insulin receptor affinity relative to human insulin (insulin receptor A [2]): 0.5 to 10% | Lipogenesis in rat adipocytes [Potency (%)] Mean Value [3]: 0.6 % of human insulin
B1: (A14E, A21G, A22(GQAP)18, A94G, A95Q, A96A, A97K^, A98P, B16E, B25H, B29R, desB30 human insulin)/(227A, 234A, 235K, 297E, 315Q, 384Q, des447 hIgG4-Fc(228-447)) … (other)
chain 1: B4 chain 1 with A14E
chain 2: FVNQHLCGSHLVEALELVCGERGFHYTPR
chain 3: B3 chain 3
modifications: Cys229 (EU numbering) sulphur bound to an acetyl arm of the linker; A97K N(eps) acylated by the trivalent linker 4-[bis[2-[(2-acetyl)amino]ethyl]amino]-4-oxo-butanoyl

Insulin receptor affinity [IC50 relative to HI (%)] (insulin receptor A [1]): 3.06% | Lipogenesis in rat adipocytes [Potency (%)] Mean Value [3]: 2.64 % of human insulin
B2: (A14E, A21G, A22(GQAP)24, A118G, A119Q, A120A, A121K^, A122P, B29R, desB30 human insulin)/(227A, 234A, 235K, 297E, 315Q, 384Q, des447 hIgG4-Fc(228-447)) … (other)
chain 1: GIVEQCCTSICSLEQLENYCGGQAPGQAPGQAPGQAPGQAPGQAPGQAPGQAPGQAPGQAPGQAPGQAPGQAPGQAPGQAPGQAPGQAPGQAPGQAPGQAPGQAPGQAPGQAPGQAPGQAKP
chain 2: FVNQHLCGSHLVEALYLVCGERGFFYTPR
chain 3: B3 chain 3
modifications: Cys229 (EU numbering) sulphur bound to an acetyl arm of the linker; A121K N(eps) acylated by the trivalent linker 3,5-bis[(2-acetyl)amino]benzoyl
notes: also called Ex 5.29

Insulin receptor affinity [IC50 relative to HI (%)] (insulin receptor A [1]): 10.6% | insulin receptor affinity relative to human insulin (insulin receptor A [4]): 0.5 to 10% | Lipogenesis in rat adipocytes [Potency (%)] Mean Value [3]: 5.31 % of human insulin
B5: A14E, A21G, A22(GQEP)12, A70K^, A71P, B25H, B29R, desB30 human insulin/(227A, 234A, 235K hIgG4-Fc(228-447)) … (other)
chain 1: B8 chain 1 with A24E, A32E, A40E, A48E, A56E, A64E
chain 2: FVNQHLCGSHLVEALYLVCGERGFHYTPR
chain 3: B7 chain 3
modifications: Cys229 (EU numbering) sulphur bound to an acetyl arm of the linker; A70K N(eps) acylated by the trivalent linker 4-[bis[2-[(2-acetyl)amino]ethyl]amino]-4-oxo-butanoyl
notes: also called Ex 5.8

Insulin receptor affinity [IC50 relative to HI (%)] (insulin receptor A [1]): 5.07% | Lipogenesis in rat adipocytes [Potency (%)] Mean Value [3]: 6.69 % of human insulin
B6: (A14E, A21G, A22(GQEP)19, A98K^, A99P, B25H, B29R, desB30 human insulin)/(227A, 234A, 235K hIgG4-Fc(228-447)) … (other)
chain 1: GIVEQCCTSICSLEQLENYCGGQEPGQEPGQEPGQEPGQEPGQEPGQEPGQEPGQEPGQEPGQEPGQEPGQEPGQEPGQEPGQEPGQEPGQEPGQEPKP
chain 2: FVNQHLCGSHLVEALYLVCGERGFHYTPR
chain 3: B7 chain 3
modifications: Cys229 (EU numbering) sulphur bound to an acetyl arm of the linker; A98K N(eps) acylated by the trivalent linker 4-[bis[2-[(2-acetyl)amino]ethyl]amino]-4-oxo-butanoyl
notes: Fc made in E. coli; also called Ex 5.1

Insulin receptor affinity [IC50 relative to HI (%)] (insulin receptor A [1]): 3.34% | Lipogenesis in rat adipocytes [Potency (%)] Mean Value [3]: 2.21 % of human insulin
B9: A14E, A21G, A22(GQAPGQAPGQEP)6-GQAP, A98K^, A99P, B3Q, B25H, B29R, desB30 human insulin/(227A, 234A, 235K hIgG4-Fc(228-447)) … (other)
chain 1: B3 chain 1
chain 2: FVQQHLCGSHLVEALYLVCGERGFHYTPR
chain 3: B7 chain 3
modifications: Cys229 (EU numbering) sulphur bound to an acetyl arm of the linker; A98K N(eps) acylated by the trivalent linker 4-[bis[2-[(2-acetyl)amino]ethyl]amino]-4-oxo-butanoyl
notes: also called Ex 5.5

From patent US20200261595A1 (Novo Nordisk, published 2020)
